According to the supplement of paper PMC10567573:

B1: INTS3 (parent)
chain: FHPIKETVVEEPVDITPYLDQLDE
B2: CCNC (parent)
chain: QSSHYLQWILDKQDLLKERQKDLK

Variants of: B1
Experiment: protein stability index of a GFP-peptide fusion (GPS, HEK-293T) (PSI 1-6); higher = more stable
Details: c terminus: a fixed tail appended
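Note: lentivirally expressed fusions sorted by FACS into six bins by GFP to DsRed ratio, PSI derived from sequencing read proportions per bin multiplied by bin number.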

Protein stability index, by site and new letter:
I4: F 3.4; S 3.87; V 3.82; T 3.9; G 4.25; L 3.85; Q 3.83
I15: A 3.43; H 3.03; V 3.98; D 4.18; M 2.86; Y 3.3; K 3.86
E24: V 2.99; M 2.83; S 2.9
V13: A 3.61; I 3.4; N 3.42; W 2.92; G 3.27; F 3.05; Q 3.25
F1: P 5.74; V 5.44
V9: G 3.93; N 3.81; C 2.89; R 3.08; Y 2.97; Q 3.77; S 3.25
Y18: N 3.72; L 3.88
K5: V 4.17; R 3.9; D 4.86; Q 3.35; N 4.8; G 4.4; L 3.87
P17: H 3.63; D 3.58; I 2.49; Q 3.52; F 3.08; C 3.17; T 2.94; E 3.89
Q21: F 2.55; P 3.15; S 2.82; W 2.26; C 2.55; V 4.05
T16: D 3.79; L 3.05; V 3.14; A 3.91; P 3; F 3.2; K 3.45; G 3.44
D14: R 2.62; Y 2.11; S 2.75; N 3.04; M 2.14; T 3.18; L 2.91; K 3.13; E 3.18; C 3.12
L22: P 3.61; G 3.41; Y 3.16; R 3.71; A 3.9; D 3.62; T 3.38
H2: R 4.81; V 2.16; M 4.87; L 4.87; F 4.86; A 4.34; G 5.35
P3: F 2.52; A 3.82; Q 3.78; D 4.79; I 2.66; V 4.19
P12: G 3.58; C 3.03; T 3.18; N 3.57
D20: C 2.49; G 2.99; A 3.11; W 2.14; H 3; T 2.94
V8: S 3.38; E 4.18; P 3.73; Y 3.06
E11: M 2.93; V 2.79; Q 3.53; I 1.77
D23: I 2.06; G 2.59; C 2.48; N 2.8; W 1.8; Y 2.18; P 3.02
E10: I 2.08; L 2.69; Q 2.99; N 2.59; Y 1.8; H 2.56; P 2.98
L19: V 4.03; H 3.18; W 2.56; A 3.21; Q 2.72; G 3.32; K 3.24; T 3.31
E6: P 2.89; I 1.57; C 1.78; K 2.34
T7: Y 2.88; F 2.32; K 2.91; D 3.85; H 3.35; V 3.12; N 3.55; C 2.66

Variants of: B2
Experiment: as above
Details: c terminus: a fixed tail appended

Protein stability index, by site and new letter:
D22: L 2.08; N 2.9; W 2.57; I 2.48; P 2.6; Q 2.1; H 3.02; C 2.54; S 2.59; M 2.55; E 3.19; K 2.18; V 2.79; R 3.72; G 2.6; A 2.61; Y 2.82; F 2.67; T 2.31
L23: Y 1.85; H 3.31
